Experimental data: publication PMC13044922, “Molecular structure and nickel-binding capacity of Proteus mirabilis UreE” (Acta Crystallographica Section D: Structural Biology, 2026)

B1: Proteus mirabilis UreE (natural protein)
chain: MKKFTQIIDQQKALELTSTEKPKLTLCLTMDERTKSRLKVALSDGQEAGLFLPRGTVLKEGDILLSEEGDVVTIEAAKEQVSTVYSDDPLLLARVCYHLGNRHVPLQIEAGWCRYFHDHVLDDMARGLGATVVVGLEKYQPEPGAYGGSSGGHHHHHDHHH
notes: Cloned from strain ATCC 12453; In the crystal the models end at residue 147 (chain A) and 144 (chain B); the C-terminal tails are not resolved; also called PmUreE; full-length PmUreE
B2: PmUreE-ΔC17 (domain or fragment)
chain: MKKFTQIIDQQKALELTSTEKPKLTLCLTMDERTKSRLKVALSDGQEAGLFLPRGTVLKEGDILLSEEGDVVTIEAAKEQVSTVYSDDPLLLARVCYHLGNRHVPLQIEAGWCRYFHDHVLDDMARGLGATVVVGLEKYQPEPG
notes: UreE of Proteus mirabilis ATCC 12453 with a stop codon inserted after Gly144 (lacks the last 17 residues, the histidine-rich C-terminus); Made from the full-length construct of m1 by a stop codon after Gly144; also called PmUreE-ΔC17 truncation mutant; C-terminally truncated mutant of PmUreE; source: E. coli BL21 (DE3), purified (Ni-NTA, SEC)

Molecular target: the molecule itself
Assay: SEC; HiLoad 16/600 Superdex 75, 20 mM HEPES pH 7.5, 100 mM NaCl with or without 1 mM EDTA, 277 K; elution volume compared with molecular weight

Row | Protein | stoichiometry N
1 | B1 | ~2
2 | B2 | 2
